The series deals with the molecule itself. In words: crystal structure of the NC1 hexamer, 2.0 Å. How it is done:
The heavy atom soak screens were carried out at beamlines 1-5 and 9-2 of Stanford Syncrhortron Radiation Laboratory (SSRL) and beamline X8C of National Synchrotron Light Source (NSLS) at Brookhaven National Laboratory. The Br-MAD data sets used in this study were collected at SSRL and processed using DENZO and […] programs of HKL2000 suite (39). The Br⁻ sites were located using SOLVE program (40) and 37 highest peaks (>6σ) were used for phasing the reflections at 2.2 Å resolution. The resulting phases were improved by solvent flattening using RESOLVE (41) and the electron density map was calculated using FFT program of CCP4 suite (42). Polypeptides of two α1 chains and one α2 chain (chains A-C) were traced using the TOM FRODO graphics program (43). The complete asymmetric unit was generated using non-crystallographic symmetry (“NCS”) relations obtained from Br⁻ sites—first the second trimer (chains D-F) was generated to complete one hexamer and then the second hexamer (chains G-L) was generated from the first hexamer. […] The structure was analyzed using SETOR(45), GRASP(46), and SURFNET(47) graphics software packages and various utility programs in CCP4 suite. The hexamer interface was analyzed using HBPLUS(48) and protein-protein interaction web server (http:/www.biochem.uc1.ac.uk/bsm/PP/server/). […]

B1: type IV collagen α1 chain NC1 domain (bovine lens basement membrane) (other, UniProt Q7SIB2 1441-1669, looked up)
chain: SVDHGFLVTRHSQTTDDPQCPPGTKILYHGYSLLYVQGNERAHGQDLGTAGSCLRKFSTMPFLFCNINNVCNFASRNDYSYWLSTPEPMPMSMAPITGENIRPFISRCAVCEAPAMVMAVHSQTIQIPQCPTGWSSLWIGYSFVMHTSAGAEGSGQALASPGSCLEEFRSAPFIECHGRGTCNYYANAYSFWLATIERSEMFKKPTPSTLKAGELRTHVSRCQVCMRRT
notes: domain: NC1; 5-6 N-terminal and 2 C-terminal residues are disordered in the map; also called α1 NC1; α1(IV) NC1
In the case of B1, the binding result is recorded as “binds”.

B2: type IV collagen (α1)2.α2 NC1 trimer (bovine lens basement membrane) (other)
chain 1: SVDHGFLVTRHSQTTDDPQCPPGTKILYHGYSLLYVQGNERAHGQDLGTAGSCLRKFSTMPFLFCNINNVCNFASRNDYSYWLSTPEPMPMSMAPITGENIRPFISRCAVCEAPAMVMAVHSQTIQIPQCPTGWSSLWIGYSFVMHTSAGAEGSGQALASPGSCLEEFRSAPFIECHGRGTCNYYANAYSFWLATIERSEMFKKPTPSTLKAGELRTHVSRCQVCMRRT
chain 2: ISIGYLLVKHSQTDQEPMCPVGMNKLWSGYSLLYFEGQEKAHNQDLGLAGSCLARFSTMPFLYCNPGDVCYYASRNDKSYWLSTTAPLPMMPVAEEDIRPYISRCSVCEAPAVAIAVHSQDVSIPHCPAGWRSLWIGYSFLMHTAAGDEGGGQSLVSPGSCLEDFRATPFIECNGARGTCHYYANKYSFWLTTIPEQSFQGTPSADTLKAGLIRTHISRCQVCMKNL
notes: domain: NC1; Two such trimers make the [(α1)2.α2]2 NC1 hexamer that was crystallized. m3 is used for facts told of the trimer-trimer (hexamer) interface as a whole; also called protomer NC1 trimer; half of the [(α1)2.α2]2 NC1 hexamer
On to B2, for which the binding result is reported as “binds”.

The record behind these values is patent US20030100510A1 (KANSAS UNIVERSITY MEDICAL CENTER, published 2003).
